Values belong to the binder of their own block, whether it stands above or below them.
Key:
[1] = target: T1, soluble cynomolgus macaque BTLA extracellular domain (BTLA K31-R151) (cynomolgus macaque); assay: SPR 37C, mAb captured, BTLA ECD analyte;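 note: Anti-BTLA mouse antibodies captured on a sensor chip via polyclonal anti-mouse IgG, isotype control antibody in reference channel, rates fitted after reference and blank subtraction to derive Kd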
T1 construct: also called cynomolgus BTLA; cyno BTLA
T1 chain: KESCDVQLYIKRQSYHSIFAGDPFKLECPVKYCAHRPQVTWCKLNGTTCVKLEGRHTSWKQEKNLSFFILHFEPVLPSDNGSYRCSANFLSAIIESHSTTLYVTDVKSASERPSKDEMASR
Experimental: Mouse antibody capture kit (GE Healthcare) was used to coat a Series S CMS Sensor Chip (GE Healthcare) with polyclonal anti-mouse IgG. Anti-BTLA antibody was then captured onto the biosensor surface and a negative control antibody (clone Mopc21; Biolegend) captured in the reference channel. […] Association and dissociation rates were fitted using BiaEvaluation Software (GE Healthcare) after reference and blank subtractions, and dissociation constants were calculated (FIG. 1b).

[2] = target: T2, full length cynomolgus BTLA expressed on Jurkat cells (cynomolgus monkey, UniProt Q7Z6A9 31-289 (human entry)); assay: flow cytometry, BTLA Jurkat cells
T2 construct: also called cynomolgus BTLA expressing cells
T2 chain: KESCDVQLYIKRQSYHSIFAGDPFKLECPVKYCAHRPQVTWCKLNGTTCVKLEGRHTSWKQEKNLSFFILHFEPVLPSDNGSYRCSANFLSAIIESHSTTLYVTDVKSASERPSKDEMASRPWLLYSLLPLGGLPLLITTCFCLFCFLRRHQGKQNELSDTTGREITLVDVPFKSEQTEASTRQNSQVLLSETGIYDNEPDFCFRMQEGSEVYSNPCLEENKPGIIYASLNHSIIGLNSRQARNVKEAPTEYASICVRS
Experimental: A lentiviral transfection system was used to express full length human or cynomolgus BTLA in a Jurkat T cell line. 1×10⁵ cells per well were plated in 96 well U-bottom plates. […] Secondary antibody was incubated for 30 minutes on ice, then cells were washed and resuspended in FACS buffer for analysis on a flow cytometer. The geometric mean fluorescent intensity of secondary antibody was plotted for each concentration and the EC50 for receptor binding calculated by non-linear curve fitting using GraphPad Prism software.
The ability of the BTLA agonist antibodies of the present invention to bind to human or cynomolgus BTLA expressed on the cell surface was assessed by flow cytometry. A lentiviral transfection system was used to express full length human or cynomolgus BTLA in a Jurkat T cell line. 1×10⁵ cells per well were plated in 96 well U-bottom plates.

A64R = target: T3, A64R (Mus musculus); assay: flow cytometry, GFP-positive transfected HEK-293T cells, fluorochrome-conjugated antibody at 10 ug/ml, Geo-mean relative to wild type;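 note: cells express mutant human BTLA ectodomain fused to murine CD28 transmembrane and cytoplasmic parts, stained 48 h after transfection for 1 h at 4 °C alongside a Live/Dead dye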
T3 construct: transmembrane and intracellular regions; also called BTLA A64R construct
Experimental: (§1) Constructs encoding the human extracellular region of BTLA with the transmembrane and intracellular regions of murine CD28 were cloned into the bi-cistronic mammalian expression vector pGFP2-n2 (BioSignal Packard Ltd), which also encodes GFP. […] Mock and no-transfection controls were included with each experiment. Cells were harvested at 48 hours and stained with fluorochrome-conjugated anti-BTLA antibody at 10 μg/ml, alongside a Live/Dead marker, in PBS, 0.05% azide, 2% FCS (FACS buffer) for 1 h at 4° C. Cells were washed, pelleted and resuspended in 200 μl FACS buffer before being analysed on a BD FACSCanto flow cytometer. […] For each mutant the Geo-mean of anti-BTLA antibody binding to transfected cells was expressed as a percentage of binding to the wild-type receptor (FIG. 3b). A panel of anti-BTLA antibodies was assessed and any mutation that eliminated binding of all antibodies was excluded from the analysis, on the assumption that such mutations lead to drastic changes in protein folding or expression rather than indicating an antibody epitope.

D52R = target: T4, D52R (Mus musculus); assay: as above
T4 construct: transmembrane and intracellular regions; also called BTLA D52R construct
Experimental: as §1

E57R = target: T5, E57R (Mus musculus); assay: as above
T5 construct: transmembrane and intracellular regions; also called BTLA E57R construct
Experimental: as §1

L123R = target: T6, L123R (Mus musculus); assay: as above
T6 construct: transmembrane and intracellular regions; also called BTLA L123R construct
Experimental: as §1

S121R = target: T7, S121R (Mus musculus); assay: as above
T7 construct: transmembrane and intracellular regions; also called BTLA S121R construct
Experimental: as §1

E83R = target: T8, E83R (Mus musculus); assay: as above
T8 construct: transmembrane and intracellular regions; also called BTLA E83R construct
Experimental: as §1

H68E = target: T9, H68E (Mus musculus); assay: as above
T9 construct: transmembrane and intracellular regions; also called BTLA H68E construct
Experimental: as §1

N108R = target: T10, N108R (Mus musculus); assay: as above
T10 construct: transmembrane and intracellular regions; also called BTLA N108R construct
Experimental: as §1

E55R = target: T11, E55R (Mus musculus); assay: as above
T11 construct: transmembrane and intracellular regions; also called BTLA E55R construct
Experimental: as §1

P53R = target: T12, P53R (Mus musculus); assay: as above
T12 construct: transmembrane and intracellular regions; also called BTLA P53R construct
Experimental: as §1

T78R = target: T13, T78R (Mus musculus); assay: as above
T13 construct: transmembrane and intracellular regions; also called BTLA T78R construct
Experimental: as §1

R42E = target: T14, R42E (Mus musculus); assay: as above
T14 construct: transmembrane and intracellular regions; also called BTLA R42E construct
Experimental: as §1

E45R = target: T15, E45R (Mus musculus); assay: as above
T15 construct: transmembrane and intracellular regions; also called BTLA E45R construct
Experimental: as §1

E103R = target: T16, E103R (Mus musculus); assay: as above
T16 construct: transmembrane and intracellular regions; also called BTLA E103R construct
Experimental: as §1

N65R = target: T17, N65R (Mus musculus); assay: as above
T17 construct: transmembrane and intracellular regions; also called BTLA N65R construct
Experimental: as §1

L106R = target: T18, L106R (Mus musculus); assay: as above
T18 construct: transmembrane and intracellular regions; also called BTLA L106R construct
Experimental: as §1

V80R = target: T19, V80R (Mus musculus); assay: as above
T19 construct: transmembrane and intracellular regions; also called BTLA V80R construct
Experimental: as §1

Q86R = target: T20, Q86R (Mus musculus); assay: as above
T20 construct: transmembrane and intracellular regions; also called BTLA Q86R construct
Experimental: as §1

Y132R = target: T21, Y132R (Mus musculus); assay: as above
T21 construct: transmembrane and intracellular regions; also called BTLA Y132R construct
T21 sequence (Q7Z6A9 31-151 Y132R): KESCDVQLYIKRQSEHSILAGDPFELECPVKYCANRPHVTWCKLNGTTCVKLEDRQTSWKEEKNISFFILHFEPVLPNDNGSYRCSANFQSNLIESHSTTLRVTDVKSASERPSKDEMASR
Experimental: as §1

T12 sequence (Q7Z6A9 31-151 P53R): as the sequence (Q7Z6A9 31-151 Y132R) above, with P23R, R102Y counted along it
T10 sequence (Q7Z6A9 31-151 N108R): as the sequence (Q7Z6A9 31-151 Y132R) above, with N78R, R102Y counted along it
T13 sequence (Q7Z6A9 31-151 T78R): as the sequence (Q7Z6A9 31-151 Y132R) above, with T48R, R102Y counted along it
T7 sequence (Q7Z6A9 31-151 S121R): as the sequence (Q7Z6A9 31-151 Y132R) above, with S91R, R102Y counted along it
T16 sequence (Q7Z6A9 31-151 E103R): as the sequence (Q7Z6A9 31-151 Y132R) above, with E73R, R102Y counted along it
T5 sequence (Q7Z6A9 31-151 E57R): as the sequence (Q7Z6A9 31-151 Y132R) above, with E27R, R102Y counted along it
T15 sequence (Q7Z6A9 31-151 E45R): as the sequence (Q7Z6A9 31-151 Y132R) above, with E15R, R102Y counted along it

- Kd [1]: 7.89 nM
- EC50 [2]: 0.16 nM
- binding as % of binding to wild-type BTLA (A64R): 93.5%
- binding as % of binding to wild-type BTLA (D52R): 70.2%
- binding as % of binding to wild-type BTLA (E57R): 76.3%
- binding as % of binding to wild-type BTLA (L123R): 97.4%
- binding as % of binding to wild-type BTLA (S121R): 67.9%
- binding as % of binding to wild-type BTLA (E83R): 98.8%
- binding as % of binding to wild-type BTLA (H68E): 126%
- binding as % of binding to wild-type BTLA (N108R): 107%
- binding as % of binding to wild-type BTLA (E55R): 52%
- binding as % of binding to wild-type BTLA (P53R): 55.6%
- binding as % of binding to wild-type BTLA (T78R): 95.3%
- binding as % of binding to wild-type BTLA (R42E): 111%
- binding as % of binding to wild-type BTLA (E45R): 96.3%
- binding as % of binding to wild-type BTLA (E103R): 79%
- binding as % of binding to wild-type BTLA (N65R): 89%
- binding as % of binding to wild-type BTLA (L106R): 80.4%
- binding as % of binding to wild-type BTLA (V80R): 71.6%
- binding as % of binding to wild-type BTLA (Q86R): 97.9%
- binding as % of binding to wild-type BTLA (Y132R): 68.2%
B1: 2.8.6 (antibody, V domains shown)
VH: QVQLKESGPGLVAPSQSLSITCTVSGFSLTTYGVHWVRQSPGKGLEWLGVMWPGGRTSYNPAPMSRLSISKDNSKSQVFLKMNSLQTDDTAMYYCVRGDYEYDYYAMDYWGQGTSVTVSS
VL: QIVLSQSPAILSASPGEKVTMTCRASSSVSYMHWYQQKPGSSPKPWIYATSNLASGVPARFSGSGSGTSYSLTISRMEAEDAATYYCHQWSSNPYTFGGGTKLEIK
notes: mouse IgG1k hybridoma antibody; also called clone 2.8.6

- Kd [1]: 0.99 nM
- EC50 [2]: 0.0057 nM
- binding as % of binding to wild-type BTLA (A64R): 148%
- binding as % of binding to wild-type BTLA (D52R): 129%
- binding as % of binding to wild-type BTLA (E57R): 108%
- binding as % of binding to wild-type BTLA (L123R): 116%
- binding as % of binding to wild-type BTLA (S121R): 42.5%
- binding as % of binding to wild-type BTLA (E83R): 95.5%
- binding as % of binding to wild-type BTLA (H68E): 81.3%
- binding as % of binding to wild-type BTLA (N108R): 171%
- binding as % of binding to wild-type BTLA (E55R): 60.5%
- binding as % of binding to wild-type BTLA (P53R): 117%
- binding as % of binding to wild-type BTLA (T78R): 109%
- binding as % of binding to wild-type BTLA (R42E): 72.3%
- binding as % of binding to wild-type BTLA (E45R): 108%
- binding as % of binding to wild-type BTLA (E103R): 213%
- binding as % of binding to wild-type BTLA (N65R): 87.9%
- binding as % of binding to wild-type BTLA (L106R): 135%
- binding as % of binding to wild-type BTLA (V80R): 39.9%
- binding as % of binding to wild-type BTLA (Q86R): 132%
- binding as % of binding to wild-type BTLA (Y132R): 68.1%
B2: 11.5.1 (antibody, V domains shown)
VH: EVQLQESGPSLVKPSQTLSLTCSVTGDSITSAYWNWIRKFPGNKLEYMGYISYSGSTYFNPSLKSRISITRNTSKNQYYLQLNSVTTEDTATYYCARSHYYGYYFDYWGHGTTLTVSS
VL: DIVLTQSPASLAVSLGQRATISCRASETIDSYGDSLMHWYQQKAGQPPKLLIYRASNLESGIPARFSGSGSRTDFTLTINPVEADDVATYYCQQTDEDPYTFGGGTKLEIK
notes: mouse IgG1k hybridoma antibody
